Experimental data reported in patent publication US20040005648A1, “PYK2 related products and methods” (Sugen, Inc., priority 1994, published 2004).

Assays:
[1] = tested on: Shc; assay: Tyrosine phosphorylation of Shc in stimulated PC12 cells (anti-Shc immunoprecipitation, anti-phosphotyrosine immunoblot); type: cell-based, rat
Protocol: Tyrosine phosphorylation of Shc in response to bradykinin, carbachol, PMA and other stimuli was also measured. Quiescent PC12 cells were stimulated for 5 min at 37° C. with bradykinin (1AM), carbachol (1 mM), KC1 (75 mM), PMA (1.6pM), NGF (100 ng/ml), or left unstimulated (−). The cells were also stimulated with carbachol (1 mM) or potassium chloride (75 mM) in the presence of 3 mM EGTA. Stimulations with DMPP (100 μM) or muscarine (1 mM) were preformed under the same conditions. […] The Shc proteins were immunoprecipitated with anti-Shc antibodies, the immunoprecipitates were resolved by SDS-PAGE (8%1, transferred to nitrocellulose and immunoblotted with anti-phosphotyrosine antibodies.

[2] = tested on: PYK-2; assay: Tyrosine phosphorylation of PYK-2 in NIH3T3 cell lines that overexpress PYK-2; type: cell-based, mouse; details: NIH3T3 cells overexpressing PYK-2 / PYK-2-HA; TPA 6 μM, 15 min at 37° C.
Protocol: Stable cell lines of NIH3T3 that overexpress PYK2 were established by contransfection of PYK2 subcloned into pLSV together with pSV2neo utilizing lipofectamine reagent (GIBCO BRL). Following transfection the cells were grown in Dulbecco's modified Eagle's medium containing 10% fetal bovine serum and 1 mg/ml G418. Transient transfections into 293 cells were performed by using the calcium phosphate technique (*).
The PYK-2 cDNA cloned in PLSV was cotransfected with pSV2neo into PC12 cells and NIH3T3 in order to establish stable cell lines. G418 resistant colonies were screened by immunoprecipitating and immunoblotting.
NIH3T3 cell lines were established that overexpress the PYK-2 and the PYK-2-HA protein. […] The level of phosphorylation is not so high.

B1: NGF: growth factor stimulus of PC12 cells (protein, UniProt P25427 122-241, looked up)
Beta-nerve growth factor: SSTHPVFHMGEFSVCDSVSVWVGDKTTATDIKGKEVTVLGEVNINNSVFKQYFFETKCRAPNPVESGCRGIDSKHWNSYCTTTHTFVKALTTDDKQAAWRFIRIDTACVCVLSRKAARRG
modifications: Beta-nerve growth factor
notes: growth factor stimulus of PC12 cells
duration of stimulation of Shc phosphorylation after addition [1]: five
tyrosine phosphorylation of Shc in response to the agent [1]: induced persistent stimulation of Shc phosphorylation

B2: EGF: growth factor stimulus (protein, UniProt P01133 23-1207, looked up)
Pro-epidermal growth factor: PQHWSCPEGTLAGNGNSTCVGPAPFLIFSHGNSIFRIDTEGTNYEQLVVDAGVSVIMDFHYNEKRIYWVDLERQLLQRVFLNGSRQERVCNIEKNVSGMAINWINEEVIWSNQQEGIITVTDMKGNNSHILLSALKYPANVAVDPVERFIFWSSEVAGSLYRADLDGVGVKALLETSEKITAVSLDVLDKRLFWIQYNREGSNSLICSCDYDGGSVHISKHPTQHNLFAMSLFGDRIFYSTWKMKTIWIANKHTGKDMVRINLHSSFVPLGELKVVHPLAQPKAEDDTWEPEQKLCKLRKGNCSSTVCGQDLQSHLCMCAEGYALSRDRKYCEDVNECAFWNHGCTLGCKNTPGSYYCTCPVGFVLLPDGKRCHQLVSCPRNVSECSHDCVLTSEGPLCFCPEGSVLERDGKTCSGCSSPDNGGCSQLCVPLSPVSWECDCFPGYDLQLDEKSCAASGPQPFLLFANSQDIRHMHFDGTDYGTLLSQQMGMVYALDHDPVENKIYFAHTALKWIERANMDGSQRERLIEEGVDVPEGLAVDWIGRRFYWTDRGKSLIGRSDLNGKRSKIITKENISQPRGIAVHPMAKRLFWTDTGINPRIESSSLQGLGRLVIASSDLIWPSGITIDFLTDKLYWCDAKQSVIEMANLDGSKRRRLTQNDVGHPFAVAVFEDYVWFSDWAMPSVMRVNKRTGKDRVRLQGSMLKPSSLVVVHPLAKPGADPCLYQNGGCEHICKKRLGTAWCSCREGFMKASDGKTCLALDGHQLLAGGEVDLKNQVTPLDILSKTRVSEDNITESQHMLVAEIMVSDQDDCAPVGCSMYARCISEGEDATCQCLKGFAGDGKLCSDIDECEMGVPVCPPASSKCINTEGGYVCRCSEGYQGDGIHCLDIDECQLGEHSCGENASCTNTEGGYTCMCAGRLSEPGLICPDSTPPPHLREDDHHYSVRNSDSECPLSHDGYCLHDGVCMYIEALDKYACNCVVGYIGERCQYRDLKWWELRHAGHGQQQKVIVVAVCVVVLVMLLLLSLWGAHYYRTQKLLSKNPKNPYEESSRDVRSRRPADTEDGMSSCPQPWFVVIKEHQDLKNGGQPVAGEDGQAADGSMQPTSWRQEPQLCGMGTEQGCWIPVSSDKGSCPQVMERSFHMPSYGTQTLEGGVEKPHSLLSANPLWQQRALDPPHQMELTQ
modifications: Pro-epidermal growth factor
notes: growth factor stimulus
tyrosine phosphorylation of PYK-2 in response to the agent [2]: undergoes tyrosine phosphorylation
